In patent US12077763B2, “RNA-based control of powdery mildew” (Greenlight Biosciences, Inc., priority 2021, dated 2024):

B1: GS3925 (nucleic acid)
sense: UUUGAAAAACACACAACCCCAGAAGAAUACGAUAGCAUAUCAUUGGCCAAGCACCCUCAGUUGCAUGUUGAGGAUGAUUCAUGGCAUAGAGCAACUGGUACUUGUAAGUGUAAUAACUGUUAAUGAAGUAUAUAAUCCCAAAAAAUAGAACCAUAUAACCAGCCGGUAGAAUUGAGUAUACAAUACACAAAAUGUAUACAAGGAUUGCAGAGGGUAGAUAAAACCCGUAUUUGAAGACAGGAGGCUGUGUAAGCUCCCAGCGAUCCCUAGGGCUUUUUGAAUACAUACGCAUAAUUGGAUAUAGAGACACACUGCCAAACUCUAAGAGCCUUAAUGGUAUGAAACCAA
antisense: UUGGUUUCAUACCAUUAAGGCUCUUAGAGUUUGGCAGUGUGUCUCUAUAUCCAAUUAUGCGUAUGUAUUCAAAAAGCCCUAGGGAUCGCUGGGAGCUUACACAGCCUCCUGUCUUCAAAUACGGGUUUUAUCUACCCUCUGCAAUCCUUGUAUACAUUUUGUGUAUUGUAUACUCAAUUCUACCGGCUGGUUAUAUGGUUCUAUUUUUUGGGAUUAUAUACUUCAUUAACAGUUAUUACACUUACAAGUACCAGUUGCUCUAUGCCAUGAAUCAUCCUCAACAUGCAACUGAGGGUGCUUGGCCAAUGAUAUGCUAUCGUAUUCUUCUGGGGUUGUGUGUUUUUCAAA
B2: GS3922 (nucleic acid)
sense: CCCGAAUGAAUGCUAUCAACAUGGGAUAGUAGUUCACGUUCACUCCGAAAUUUUAUAUUACAAAACAUACACUCUGCAUGUUCUUUUCGAAUAUGAGCCUGUAACUUUGAAUAACUUGUGAAGCCUAGAUUUAAUGGCGUACCAUCUGAAUUAAAAGAUCCUGUCAAGCAACAUUCAUUACAGAAAUAUCGAGCACUGCCAUGAGCUCGCUCUUGGUGUCGACGAAGGCUGGCGGAACUAUCGAAACCUGAGUUGCAACUUUCGCCAGUGACAGGGUCAACAUGGACACAGGGAUACGGCAUAAGCUGAAGAUGUUCAGAGCGAAUAUGACGCUGGAGAGUUUGAUGUUUUCGGAAAUUUUGGCUACAGGGUGGGUAAUUUGUACAUUUGAAU
antisense: AUUCAAAUGUACAAAUUACCCACCCUGUAGCCAAAAUUUCCGAAAACAUCAAACUCUCCAGCGUCAUAUUCGCUCUGAACAUCUUCAGCUUAUGCCGUAUCCCUGUGUCCAUGUUGACCCUGUCACUGGCGAAAGUUGCAACUCAGGUUUCGAUAGUUCCGCCAGCCUUCGUCGACACCAAGAGCGAGCUCAUGGCAGUGCUCGAUAUUUCUGUAAUGAAUGUUGCUUGACAGGAUCUUUUAAUUCAGAUGGUACGCCAUUAAAUCUAGGCUUCACAAGUUAUUCAAAGUUACAGGCUCAUAUUCGAAAAGAACAUGCAGAGUGUAUGUUUUGUAAUAUAAAAUUUCGGAGUGAACGUGAACUACUAUCCCAUGUUGAUAGCAUUCAUUCGGG
B3: GS3920 (nucleic acid)
sense: UCAACGUAAAUUUUAUAAGCAAGGCUCUGGUAAAGUGGAACCUUACUUUUUAAUCCUCAACAAGGAAGGAGAGUUCAUUGAUGUAGUCGUUGAAGGGCUGAUGAAUAACUUCAUAAGAUGUCAACAAACAAGAAAAAUCUCUACAGAAUUAAUUUCAGAUGCACCUAAUCAACCGGUACCAUCUCAAAUAUCUGGAUAUCAAUGUGGUAAAUUUUUUUUUAGCAAUGAGGAACUUGAGAAUACUGCAAAUGUGGCUAGAGAUAUCAUGCUUCAGAGAAGUCAAAAUAAAAUUCCCACUAAGUAUAA
antisense: UUAUACUUAGUGGGAAUUUUAUUUUGACUUCUCUGAAGCAUGAUAUCUCUAGCCACAUUUGCAGUAUUCUCAAGUUCCUCAUUGCUAAAAAAAAAUUUACCACAUUGAUAUCCAGAUAUUUGAGAUGGUACCGGUUGAUUAGGUGCAUCUGAAAUUAAUUCUGUAGAGAUUUUUCUUGUUUGUUGACAUCUUAUGAAGUUAUUCAUCAGCCCUUCAACGACUACAUCAAUGAACUCUCCUUCCUUGUUGAGGAUUAAAAAGUAAGGUUCCACUUUACCAGAGCCUUGCUUAUAAAAUUUACGUUGA
B4: GS1816: dsRNA trigger SEQ ID NO 174; gene target Plasma membrane ATPase (nucleic acid)
DNA: CAACCACTGAGACTTGTTCAATACATGATACACAATAGCAATCACTATCGTGACAGCAATAGAATAGCCCCAGACAACAATAATAGTGACAATGGAGGTTCTTCCGTCAGTAGATAAAAGGGAGTTTAATGTGGCAGGATCTGAAGGCTCACCAGCACCGCCAGTTAACCAACCAAAGAGACAGAAGAGAGTTGCAAGTACATCAACACCGAATATAGCAGCAACGAGTGCAAATGCAGGATAAGTCTCATCTCCTCTGGTGACAAAGATGAGCCAGTTTTCGGTGAGAGAAATTTGAAGGAATAACATTCCCTGGATAGATCCAAAGTTATCAATCATGCCACCATTAGGTAAGAAAAGCGAGCCACGTAATACCCATGTTCCAAGAGCAAGCAATATGCCAAGAACAACAGAGATAATCCAGATTTTAGGTAATTGCCACTCAACAGGTCGAATCTCAAAGTGAGCGTTGTCGTATGCAACTGCAATTGTGGCTAAATCGGCAAAAAGTGCAAGGAAGACAATTAAATCAACCCGGACAGTTTCGTTAATAATGATCATAGAGGTTACAAGATAGATTTCTAAGTGTAAACATAA
B5: GS3927 (nucleic acid)
sense: CUGAAUCAGAUGAUGGGGGUAAUGAACGUAUGAUAAAUAGUAAGAAACCGCGAAGUACAUGCUCGAAGACCCUAAGGGAAAAAGAUUUGAAAGAUGAUAAAGAAAAGUCCAGAUCUGAUGCUGUAGCUAAAAGAAAUGGUCGUACAGAGCGGAGAAGAACUGAAGAUCAAGAAACACAGAAGGAAUUGUCAAUUGGUACUAAAAAUACAAUGUGCAAUAGCACAGACUCUUCUAAAGUCUCUACAACGAUUGAAUCUCUUGAGUCUCCGACAUUAUCAAAUGGUAGAGUUUCAGACAAUUCAUCUAACAACCAAUUUCCAAUACCUUUAAAAAAAAGCUACCGUAAUUCAAAUUCUAGGAAAGGGAAAUUAGCCAAAAAUAAUUUCACAAGGGAAU
antisense: AUUCCCUUGUGAAAUUAUUUUUGGCUAAUUUCCCUUUCCUAGAAUUUGAAUUACGGUAGCUUUUUUUUAAAGGUAUUGGAAAUUGGUUGUUAGAUGAAUUGUCUGAAACUCUACCAUUUGAUAAUGUCGGAGACUCAAGAGAUUCAAUCGUUGUAGAGACUUUAGAAGAGUCUGUGCUAUUGCACAUUGUAUUUUUAGUACCAAUUGACAAUUCCUUCUGUGUUUCUUGAUCUUCAGUUCUUCUCCGCUCUGUACGACCAUUUCUUUUAGCUACAGCAUCAGAUCUGGACUUUUCUUUAUCAUCUUUCAAAUCUUUUUCCCUUAGGGUCUUCGAGCAUGUACUUCGCGGUUUCUUACUAUUUAUCAUACGUUCAUUACCCCCAUCAUCUGAUUCAG
B6: GS3921 (nucleic acid)
sense: UUCGCGGUGUCUUCCUUUCCAGAGCCUUUAGUCUUUGAAGGAUUUUCUUCUUCAUCCCCAUCUUCACCCUCCGCUUCUGCAUUGACUUCGUCGGCCUUUUUUGCUUUUUUUUCUUCCCCAGAUUUGCCUUUCGUUGUUAGAGCUCCUAGGCCACUAGCGAGAGAAUUUGAACCAUUACCACCGCCAACAAGAACUCCUGCUUUACCUCCUAUGGUCACCUCUUGAAUACUCUGACUUUCAUUUUCCGCAGCAUUGGCUUGCUUUUUGGAAGAUGAGCUAGAGUCAUGUGAUUUUUCUGAAUUCGAUGCCUUAUUUUUCUGAUCUUUU
antisense: AAAAGAUCAGAAAAAUAAGGCAUCGAAUUCAGAAAAAUCACAUGACUCUAGCUCAUCUUCCAAAAAGCAAGCCAAUGCUGCGGAAAAUGAAAGUCAGAGUAUUCAAGAGGUGACCAUAGGAGGUAAAGCAGGAGUUCUUGUUGGCGGUGGUAAUGGUUCAAAUUCUCUCGCUAGUGGCCUAGGAGCUCUAACAACGAAAGGCAAAUCUGGGGAAGAAAAAAAAGCAAAAAAGGCCGACGAAGUCAAUGCAGAAGCGGAGGGUGAAGAUGGGGAUGAAGAAGAAAAUCCUUCAAAGACUAAAGGCUCUGGAAAGGAAGACACCGCGAA

Tested on: E. necator
Assay: Leaf disc assay, dry inoculum (settling tower), decrease in disease severity / hyphal growth (Example 2)
Settings: decrease in disease severity (hyphal growth) relative to untreated control, value ± SE; for % decrease =/− SE TP1: time point 1 (untreated control hyphal growth ≥50%); for % decrease =/− SE TP2: time point 2

| Molecule | % decrease =/− SE TP1 [%] | % decrease =/− SE TP2 [%] |
| --- | --- | --- |
| B1 | 18 ± 4 | 3 ± 6 |
| B2 | – | 27 ± 12 |
| B3 | 14 ± 11 | 12 ± 12 |
| B4 | 61 ± 2 | 50 ± 7 |
| B5 | 7 ± 3 | – |
| B6 | 3 ± 8 | 8 ± 8 |
